Target: CD33 (UniProt P20138 18-364, limits assumed)
Test: cell-based or functional assay

Chain of CD33 (P20138 18-364 limits assumed): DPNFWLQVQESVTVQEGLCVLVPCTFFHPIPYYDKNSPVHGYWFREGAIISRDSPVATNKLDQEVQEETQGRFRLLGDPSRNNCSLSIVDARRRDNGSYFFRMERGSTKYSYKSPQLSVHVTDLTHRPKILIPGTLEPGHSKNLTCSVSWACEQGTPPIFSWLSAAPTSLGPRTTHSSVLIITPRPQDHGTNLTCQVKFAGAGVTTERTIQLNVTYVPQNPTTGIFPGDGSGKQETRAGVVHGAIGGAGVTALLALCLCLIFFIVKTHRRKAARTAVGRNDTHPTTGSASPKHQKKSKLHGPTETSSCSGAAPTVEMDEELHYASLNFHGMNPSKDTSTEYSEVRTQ

Row | EOL-1 IC50 (in vitro cell proliferation assay) [ng/mL] | Binder
1 | 370 | CD33 CBI-PBD ADC2-2 (antibody, V domains shown) VH: QVQLVQSGAEVKKPGSSVKVSCKASGGIFSNHAISWVRQAPGQGLEWMGGIIPIFGTANYAQKFQGRVTITADESTSTAFMELSSLRSEDTAVYYCAREWADVFDIWGQGTMVTVSS VL: EIVLTQSPLSLPVTPGEPASISCRSSQSLLHSNGYNYLDWYLQKPGQSPQLLIYLGVNSVSGVPDRFSGSGSGTDFTLKISRVEAEDVGVYYCMQALQTPWTFGQGTKVEIK
2 | 18.1 | CD33 CBI-PBD ADC3-2 (antibody, V domains shown) VH: QVQLVQSGAEVKKPGSSVKVSCKASGGIFSNHAISWVRQAPGQGLEWMGGIIPIFGTANYAQKFQGRVTITADESTSTAFMELSSLRSEDTAVYYCAREWADVFDIWGQGTMVTVSS VL: EIVLTQSPLSLPVTPGEPASISCRSSQSLLHSNGYNYLDWYLQKPGQSPQLLIYLGVNSVSGVPDRFSGSGSGTDFTLKISRVEAEDVGVYYCMQALQTPWTFGQGTKVEIK
